Experimental findings from US20240043512A1 are described below.

First the molecules themselves.
B1: SPIK5 (peptide)
peptide: SGNTGADSL
B2: SPIK6 (peptide)
peptide: LSGNTGADS
B3: SPIK7 (peptide)
peptide: SLSGNTGAD
B4: SPIK4 (peptide)
peptide: GNTGADSLG

This test deals with IM-CA22. In words: competition ELISA: 0.5 µg/mL peptide added to prevent the binding of AS-SPIK with IM-CA22; inhibition rate from OD value with vs without peptide. (In general: ELISA stands for enzyme-linked immunosorbent assay.)
Sequence of IM-CA22 (VH, as listed by the source, chain 1 of 2): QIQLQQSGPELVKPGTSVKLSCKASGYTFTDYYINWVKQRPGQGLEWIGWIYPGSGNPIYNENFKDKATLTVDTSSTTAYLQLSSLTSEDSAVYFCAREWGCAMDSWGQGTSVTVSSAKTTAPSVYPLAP
Sequence of IM-CA22 (VL, as listed by the source, chain 2 of 2): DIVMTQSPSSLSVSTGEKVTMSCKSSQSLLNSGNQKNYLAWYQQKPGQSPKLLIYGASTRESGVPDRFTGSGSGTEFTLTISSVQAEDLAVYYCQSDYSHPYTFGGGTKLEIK
The molecule B1 gave an Inhibition % of 5%.

B2 came in with an Inhibition % of 6%.

B3: the Inhibition % is 6%.

Molecule B4 came in with an Inhibition % of 6%.
